According to US20170002075A1 (AbbVie / Abbott, published 2017):

Experiments:
[1] = molecular target: T1, recombinant human RAGE (plate coat of the competition ELISA of Example 1.4); experiment: competition ELISA on plates coated with recombinant human RAGE (2 µg/mL); competitor: biotinylated hybridoma-derived 7F9 (7F9-biotin), streptavidin-HRP, OD 450 nm; the unit comes from the axis 'Log MAbs (M)'
T1 construct: not shown: The carrier of the coated preparation, if it had one
Experimental: (§1) The purified chimeric anti-human RAGE monoclonal antibodies were tested for their ability to bind human RAGE in a competition ELISA. […] Equal volumes (50 μL) of each recombinant chimeric anti-human RAGE monoclonal antibodies or hybridoma-derived anti-human RAGE monoclonal antibodies and each corresponding biotinylated hybridoma-derived anti-RAGE mAbs were mixed. 50 μL of this mixture was then added to ELISA plates pre-coated with recombinant human RAGE at 2 μg/mL and incubated for 1.5 hours at room temperature. Wells were washed three times with PBS+0.05% Tween-20. Streptavidin HRP (1 mg/mL) was diluted 1:16000 in PBST+10% Superblock; 50 µL/well was added and the plates incubated for 1 hour at room temperature. Plates were washed 3 times with PBS+0.05% Tween-20. 50 µL of TMB solution (Sigma, St Louis, Mo.) was added to each well and incubated for 10 minutes at room temperature. The reaction was stopped by addition of IN sulphuric acid. Plates were read spectrophotometrically at a wavelength of 450 nm.

[2] = molecular target: T2, hRAGE (1-331) / human sRAGE 1-331, V#400 (human, UniProt Q15109 23-331); experiment: Biacore SPR, mAb captured via anti-mouse Fc, human sRAGE 1-331 (V#400) injected, concurrent experiment, 1:1 fit
T2 construct: also called sRAGE [RAGE (1-331)]; RAGE (antigen of the Biacore runs)
T2 sequence (Q15109 23-331): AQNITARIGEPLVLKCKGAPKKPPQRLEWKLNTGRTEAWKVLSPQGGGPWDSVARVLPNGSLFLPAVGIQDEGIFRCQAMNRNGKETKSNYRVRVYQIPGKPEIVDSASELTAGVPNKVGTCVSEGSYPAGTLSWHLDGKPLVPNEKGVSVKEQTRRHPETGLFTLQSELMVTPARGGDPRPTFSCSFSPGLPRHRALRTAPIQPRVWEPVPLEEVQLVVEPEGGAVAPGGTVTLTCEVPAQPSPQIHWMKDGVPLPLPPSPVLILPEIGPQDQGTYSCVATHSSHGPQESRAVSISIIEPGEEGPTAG
Excerpt: Biacore 2000 and Biacore T100 instruments were used to measure anti-RAGE mAb binding kinetics. The assay format for mAb affinity analysis was Fc-based capture via immobilized anti-Fc antibodies. A standard amine coupling protocol was employed to immobilize Fc-specific IgG via primary amines to the carboxy-methyl (CM) dextran surface of CM5 sensorchips (Biacore). For the study of mouse anti-RAGE mAbs, anti-mouse Fc (Biacore, anti-mouse, BR-1005-14) was used as the immobilized capture reagent and for the study of humanized anti-RAGE mAbs, anti-human Fc (Pierce 31125) was used as the immobilized capture reagent. An automated protocol, available on the Biacore 2000 and Biacore T100, was used to immobilize 8000-10000 RU of capture reagent in all 4 flowcells of the sensorchip. Briefly, the CM-dextran surfaces were activated by freshly prepared 1:1 50 mM N-hydroxysuccinimide (NHS):200 mM 3-(N,N-dimethylamino) propyl-N-ethylcarbodiimide (EDC). Then the anti-Fc IgG capture reagent (20 ug/ml in 10 mM sodium acetate, pH4.5) was applied to the surface followed by deactivation of the surface and blocking of the residual reactive sites with 1M ethanolamine (pH 8.5).
Data were processed using either Biacore evaluation software or Scrubber 2.0 software (BioLogic Software). Briefly, the data were double referenced by first, subtracting the signal from the reference cell and second, by subtracting the signal from buffer-only injections. The double referenced data for the RAGE injection series were then fit globally to a 1:1 (Langmuir) binding model, which included a mass transfer term, to determine the binding kinetic rate constants, kₐ and kd, and the affinity, KD (kₐ=kₒₙ; kd=koff)

[3] = molecular target: T1, recombinant human RAGE (plate coat of …); experiment: competition ELISA on plates coated with recombinant human RAGE (2 µg/mL); competitor: biotinylated hybridoma-derived 11E6 (11E6-biotin), streptavidin-HRP, OD 450 nm; the unit comes from the axis 'Log MAbs (M)'
Experimental: as §1

mouse RAGE (Mu-RAGE) = mouse RAGE (Mu-RAGE) (mouse, UniProt Q62151 23-340, limits assumed); experiment: Biacore SPR (Table 7, column Mouse-RAGE); paragraph 283: 'Table 7 shows that 4E5 did not bind to mouse RAGE (Mu-RAGE)'
Sequence of mouse RAGE (Mu-RAGE) (Q62151 23-340 limits assumed): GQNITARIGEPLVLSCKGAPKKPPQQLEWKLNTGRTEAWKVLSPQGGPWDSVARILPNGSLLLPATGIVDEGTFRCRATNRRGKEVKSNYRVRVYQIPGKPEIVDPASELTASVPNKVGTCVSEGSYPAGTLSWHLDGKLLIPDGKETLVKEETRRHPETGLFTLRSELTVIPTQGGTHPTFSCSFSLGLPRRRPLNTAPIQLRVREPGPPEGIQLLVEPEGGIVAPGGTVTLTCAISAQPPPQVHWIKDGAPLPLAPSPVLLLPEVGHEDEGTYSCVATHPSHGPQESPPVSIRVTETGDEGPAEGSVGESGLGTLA

[4] = molecular target: T1, recombinant human RAGE (plate coat of …); experiment: competition ELISA on plates coated with recombinant human RAGE (2 µg/mL); competitor: biotinylated hybridoma-derived 4E5 (4E5-biotin), streptavidin-HRP, OD 450 nm; the unit comes from the axis 'Log MAbs (M)'
Experimental: as §1

T1 sequence (chain, as listed by the source limits assumed): as the sequence (Q15109 23-331) above

B1: anti-human RAGE monoclonal antibody 7F9 (murine, hybridoma-derived) (antibody, V domains shown)
VH: EEKLEESGGGLVQLGGSMKISCVASGFTLSNYWMDWVRQSPEKGLEWIAEIRLKSNYYSTHYAESVKGRFSISRDDSKGSVSLQMDNLTAEDTGIYFCARNAYWYFDVWGTGTTVTVSS
VL: DIVMTQSHKFMSTSVGDRVSATCKASQDVGTSVAWYQQKLGQSPKLLIYWTSTRHTGVPDRFTGSGSGTDFTLTISNVQSEDLADYFCQQYNNYPLTFGDGTKLELKR
notes: also called mAb7F9; MAb 7F9
EC50 [1]: 166 nM

B2: anti-human RAGE monoclonal antibody 11E6 (murine, hybridoma-derived) (antibody, V domains shown)
VH: QIQLVQSGPELKKPGETVKISCKASGYTFTNFGMNWVKQAPGKGLKWMGYINTNTGESIYSEEFKGRFAFSLETSASTAYLQINNLKNEDTATYFCARSRMVTAYGMDYWGQGTSVTVSS
VL: DIVMTQSQKFMSTSVGDRVSITCKASQNVGTAVAWYQQRPGQSPKLLIFSASNRYTGVPDRFTGSGSGTDFTLTLSNMQPEDLADYFCQQYSSYPLTFGVGTKLELKR
notes: also called mAb11E6; ML37-11E6
Kd [2]: 0.068 nM
koff [2]: 0.0013 s⁻¹
kon [2]: 1.8e+07 M⁻¹ s⁻¹
EC50 [3]: 90.9 nM

B3: anti-human RAGE monoclonal antibody 4E5 (murine, hybridoma-derived) (antibody, V domains shown)
VH: QVQLQQSGAELVRPGTSVKVSCKASGYAFNNYLIEWIKQRPGQGLEWIGVINPGSGGTNHNEKFKVKATLTADKSSSTAYIQLSSLTSDDSAVYFCARSAGTARARFAYWGQGTLVTVSA
VL: DIQMTQSPSSLSASLGERVSLTCRASQDIGSSLNWLQQEPDGTIKRLIYATSSLDSGVPKRFSGSRSGSDYSLTISSLESEDFVDYYCLQYASFPFTFGSGTKLEIKR
notes: also called mAb4E5; ML37-4E5
binding result (mouse RAGE (Mu-RAGE)): no binding
EC50 [4]: 244 nM
